Data: paper PMC4664265, “Substrate-Induced Dimerization of Engineered Monomeric Variants of Triosephosphate Isomerase from Trichomonas vaginalis” (PLoS ONE, 2015)

Assays:
[1] = molecular target: TvTIM1 I45G (Trichomonas vaginalis) (UniProt A2EGX9); experiment: SEC; gel filtration at 7 mg/ml (~260 μM) in Tris pH 7.4, 100 mM NaCl; dimer to monomers
[2] = molecular target: TvTIM1 I45G (Trichomonas vaginalis) (UniProt A2EGX9)
[3] = molecular target: TvTIM1 I45G-Q52C double mutant (Trichomonas vaginalis) (UniProt A2EGX9)
[4] = molecular target: TvTIM1 I45A (Trichomonas vaginalis) (UniProt A2EGX9); experiment: SEC; gel filtration at 7 mg/ml (~260 μM) in Tris pH 7.4, 100 mM NaCl; dimer to monomers
[5] = molecular target: TvTIM1 I45A (Trichomonas vaginalis) (UniProt A2EGX9); experiment: AUC
[6] = molecular target: TvTIM1 I45A (Trichomonas vaginalis) (UniProt A2EGX9)
[7] = molecular target: TvTIM1 I45F (Trichomonas vaginalis) (UniProt A2EGX9)
[8] = molecular target: TvTIM1 I45Y (Trichomonas vaginalis) (UniProt A2EGX9)
[9] = molecular target: the molecule itself; experiment: SEC; gel filtration at 7 mg/ml (~260 μM) in Tris pH 7.4, 100 mM NaCl; dimer to monomers
[10] = molecular target: the molecule itself; experiment: AUC; sedimentation velocity, 20°C, 129,024 rcf, absorbance at 280 nm, c(s) with SEDFIT; protein 7 to 35 μM, no ligand

Molecule: TvTIM1 I45G (from UniProt A2EGX9) (enzyme)
- percent of the total protein in the dimer peak [1]: 6%
- Kcat/Km (substrate DGAP, coupled assay, 25°C; enzyme at 5 nM) [2]: 40800 M⁻¹ s⁻¹

Molecule: TvTIM1 I45G-Q52C double mutant (from UniProt A2EGX9 1-252) (enzyme)
- Kcat/Km of I45G-Q52C before cross-linking (substrate DGAP, coupled assay, 25°C) [3]: 39700 M⁻¹ s⁻¹
- Kcat/Km of the purified cross-linked I45G-Q52C dimer (substrate DGAP, coupled assay, 25°C) [3]: 2.5e+06 M⁻¹ s⁻¹

Molecule: TvTIM1 I45A (from UniProt A2EGX9) (enzyme)
- percent of the total injected protein in the dimer peak [4]: 13%
- percent of the total protein in the dimer peak [4]: 3%
- percent dimer with 20 μM PGH [5]: 17%
- percent dimer with 250 μM PGH [5]: 38%
- percent dimer with 600 μM PGH [5]: 38%
- percent dimer with 1000 μM PGH [5]: 44%
- percent dimer with 2000 μM PGH [5]: 46%
- Kcat/Km (substrate DGAP, coupled assay, 25°C; enzyme at 2 nM) [6]: 198000 M⁻¹ s⁻¹

Molecule: TvTIM1 I45F (from UniProt A2EGX9) (enzyme)
- Kcat/Km (substrate DGAP, coupled assay, 25°C; enzyme at 10 nM) [7]: 33300 M⁻¹ s⁻¹

Molecule: TvTIM1 I45Y (from UniProt A2EGX9) (enzyme)
- Kcat/Km (substrate DGAP, coupled assay, 25°C; enzyme at 12 nM) [8]: 12200 M⁻¹ s⁻¹

B1: TvTIM1 I45V (enzyme)
chain: MRTFFVGGNWKANPKTVEEAEKLIEMLNGAKVEGNVEVVVAAPFVFLPTLQQKLRKDWKVSAENVFTKPNGAFTGEVTVPMIKSFGIEWTILGHSERRDILKEDDEFLAAKAKFALENGMKIIYCCGEHLSEREAGKASEFVSAQIEKMIPAIPAGKWDDVVIAYEPIWAIGTGKVASTQDAQEMCKVIRDILAAKVGADIANKVRILYGGSVKPNNCNELAACPDVDGFLVGGASLEPGFINIVNSNVHSK
- stoichiometry N [9]: 2

B2: Triosephosphate isomerase 1 from Trichomonas vaginalis, wild type (enzyme, UniProt A2EGX9 1-252, looked up)
chain: MRTFFVGGNWKANPKTVEEAEKLIEMLNGAKVEGNVEVVVAAPFIFLPTLQQKLRKDWKVSAENVFTKPNGAFTGEVTVPMIKSFGIEWTILGHSERRDILKEDDEFLAAKAKFALENGMKIIYCCGEHLSEREAGKASEFVSAQIEKMIPAIPAGKWDDVVIAYEPIWAIGTGKVASTQDAQEMCKVIRDILAAKVGADIANKVRILYGGSVKPNNCNELAACPDVDGFLVGGASLEPGFINIVNSNVHSK
notes: triosephosphate isomerase TvTIM1 of Trichomonas vaginalis; Homodimer in solution (gel filtration, AUC); the rows are of one chain with another; also called TvTIM1; TIM1WT
- stoichiometry N [10]: 2

B3: TvTIM1 I45L (enzyme)
chain: MRTFFVGGNWKANPKTVEEAEKLIEMLNGAKVEGNVEVVVAAPFLFLPTLQQKLRKDWKVSAENVFTKPNGAFTGEVTVPMIKSFGIEWTILGHSERRDILKEDDEFLAAKAKFALENGMKIIYCCGEHLSEREAGKASEFVSAQIEKMIPAIPAGKWDDVVIAYEPIWAIGTGKVASTQDAQEMCKVIRDILAAKVGADIANKVRILYGGSVKPNNCNELAACPDVDGFLVGGASLEPGFINIVNSNVHSK
- stoichiometry N [9]: 2
